From article PMC9482650, “Quantitative fragmentomics allow affinity mapping of interactomes” (Nature Communications, 2022)

T1: TIAM2, Q8IVF5
T1 sequence (Q8IVF5 885-986, limits assumed, looked up): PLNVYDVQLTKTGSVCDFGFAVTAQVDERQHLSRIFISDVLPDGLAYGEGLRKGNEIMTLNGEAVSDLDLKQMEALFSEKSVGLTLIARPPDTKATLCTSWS

T2: APBA1_2, Q02410
T2 sequence (Q02410 742-832, limits assumed, looked up): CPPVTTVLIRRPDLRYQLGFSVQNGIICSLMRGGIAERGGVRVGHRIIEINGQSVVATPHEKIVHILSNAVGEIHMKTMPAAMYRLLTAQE

T3: SIPA1L2, Q9P2F8
T3 sequence (Q9P2F8 945-1036, limits assumed, looked up): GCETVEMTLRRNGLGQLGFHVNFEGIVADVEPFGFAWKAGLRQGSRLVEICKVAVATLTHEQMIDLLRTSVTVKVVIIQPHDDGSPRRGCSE

T4: NHERF3_1, Q5T2W1
T4 sequence (Q5T2W1 4-100, limits assumed, looked up): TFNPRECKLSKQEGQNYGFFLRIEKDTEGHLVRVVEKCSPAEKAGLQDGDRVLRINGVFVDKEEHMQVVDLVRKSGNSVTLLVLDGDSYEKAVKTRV

T5: APBA2_1, Q99767
T5 sequence (Q99767 563-664, limits assumed, looked up): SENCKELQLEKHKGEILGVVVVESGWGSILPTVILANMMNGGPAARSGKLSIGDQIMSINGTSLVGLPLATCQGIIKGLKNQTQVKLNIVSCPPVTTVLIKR

T6: LNX2_3, Q8N448
T6 sequence (Q8N448 463-564, limits assumed, looked up): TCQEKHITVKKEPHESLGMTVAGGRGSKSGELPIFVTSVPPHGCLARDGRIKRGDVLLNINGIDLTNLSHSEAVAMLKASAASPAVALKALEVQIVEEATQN

T7: HTRA4, P83105
T7 sequence (P83105 378-476, limits assumed, looked up): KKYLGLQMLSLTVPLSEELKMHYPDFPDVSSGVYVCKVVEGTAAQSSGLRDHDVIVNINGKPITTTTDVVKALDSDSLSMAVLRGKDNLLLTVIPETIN

T8: TJP3_3, O95049
T8 sequence (O95049 375-456, limits assumed, looked up): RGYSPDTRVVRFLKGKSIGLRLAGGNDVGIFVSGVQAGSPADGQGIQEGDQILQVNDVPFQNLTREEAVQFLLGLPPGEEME

T9: DFNB31_1, Q9P202
T9 sequence (Q9P202 135-233, limits assumed, looked up): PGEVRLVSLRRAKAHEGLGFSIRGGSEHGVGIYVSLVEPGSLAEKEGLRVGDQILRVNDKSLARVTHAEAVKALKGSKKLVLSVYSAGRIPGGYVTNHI

T10: PDZD7_3, Q9H5P4
T10 sequence (Q9H5P4 857-944, limits assumed, looked up): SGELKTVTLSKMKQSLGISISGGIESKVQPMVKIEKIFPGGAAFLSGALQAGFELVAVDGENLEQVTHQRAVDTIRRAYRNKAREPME

T11: LRRC7, Q96NW7
T11 sequence (Q96NW7 1440-1537, limits assumed, looked up): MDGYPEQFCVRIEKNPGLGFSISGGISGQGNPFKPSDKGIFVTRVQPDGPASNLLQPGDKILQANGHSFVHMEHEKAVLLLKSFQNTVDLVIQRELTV

T12: DFNB31_2, Q9P202
T12 sequence (Q9P202 274-371, limits assumed, looked up): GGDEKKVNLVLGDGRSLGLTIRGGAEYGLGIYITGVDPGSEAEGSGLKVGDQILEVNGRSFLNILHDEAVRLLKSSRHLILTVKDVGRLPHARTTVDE

T13: GRIP1_5, Q9Y3R0
T13 sequence (Q9Y3R0 568-668, limits assumed, looked up): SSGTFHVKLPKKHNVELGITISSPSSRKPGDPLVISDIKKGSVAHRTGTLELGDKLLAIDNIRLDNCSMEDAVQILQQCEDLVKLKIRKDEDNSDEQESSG


Experiments:
Experiment in all cases: holdup assay
Set-up in all cases: key: below the threshold = too weak to quantify, mostly under pKd 3.1 to 4
Conditions in all cases: plain residues with an end cap or a label only (N-terminal biotin on a linker: ado-ado)
[1] = target: NHERF4_2, Q86UT5
[2] = target: T1, TIAM2, Q8IVF5
[3] = target: SCRIB_1, Q14160
[4] = target: T2, APBA1_2, Q02410
[5] = target: T3, SIPA1L2, Q9P2F8
[6] = target: Inadl_3, Q8NI35
[7] = target: T4, NHERF3_1, Q5T2W1
[8] = target: T5, APBA2_1, Q99767
[9] = target: T6, LNX2_3, Q8N448
[10] = target: T7, HTRA4, P83105
[11] = target: MAST1, Q9Y2H9
[12] = target: T8, TJP3_3, O95049
[13] = target: T9, DFNB31_1, Q9P202
[14] = target: GRIP2_6, Q9C0E4
[15] = target: DLG1_1, Q12959
[16] = target: T10, PDZD7_3, Q9H5P4
[17] = target: CASK, O14936
[18] = target: DLG1_3, Q12959
[19] = target: T11, LRRC7, Q96NW7
[20] = target: T12, DFNB31_2, Q9P202
[21] = target: T13, GRIP1_5, Q9Y3R0
[22] = target: DLG1_2, Q12959
[23] = target: GIPC2, Q8TF65
[24] = target: NHERF2_2, Q15599
[25] = target: MAGI2_6, Q86UL8
Chain of MAGI2_6, Q86UL8 (Q86UL8 1141-1229): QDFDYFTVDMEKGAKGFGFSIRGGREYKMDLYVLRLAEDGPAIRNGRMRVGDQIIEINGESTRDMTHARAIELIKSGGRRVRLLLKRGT

Chain of Inadl_3, Q8NI35 (Q8NI35 359-469): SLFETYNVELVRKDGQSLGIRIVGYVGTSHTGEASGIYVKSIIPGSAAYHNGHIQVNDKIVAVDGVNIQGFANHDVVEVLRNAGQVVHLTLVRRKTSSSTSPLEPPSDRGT
Chain of NHERF2_2, Q15599 (Q15599 142-238): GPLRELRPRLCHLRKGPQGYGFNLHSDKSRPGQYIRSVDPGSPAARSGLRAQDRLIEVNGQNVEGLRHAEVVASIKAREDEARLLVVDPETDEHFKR
Chain of NHERF4_2, Q86UT5 (Q86UT5 220-308): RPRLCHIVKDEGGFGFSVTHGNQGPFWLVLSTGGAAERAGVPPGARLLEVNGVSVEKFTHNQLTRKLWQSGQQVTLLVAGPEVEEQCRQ
Chain of SCRIB_1, Q14160 (Q14160 718-814): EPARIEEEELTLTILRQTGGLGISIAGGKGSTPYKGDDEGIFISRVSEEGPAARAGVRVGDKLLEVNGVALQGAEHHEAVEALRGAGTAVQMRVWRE
Chain of MAST1, Q9Y2H9 (Q9Y2H9 962-1065): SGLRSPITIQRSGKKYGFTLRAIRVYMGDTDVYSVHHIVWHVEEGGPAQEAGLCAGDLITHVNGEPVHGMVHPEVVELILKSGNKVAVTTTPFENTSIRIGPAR
Chain of GIPC2, Q8TF65 (Q8TF65 112-203): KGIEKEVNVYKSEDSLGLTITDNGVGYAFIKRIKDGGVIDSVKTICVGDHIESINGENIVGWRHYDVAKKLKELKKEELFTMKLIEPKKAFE
Chain of CASK, O14936 (O14936 487-570): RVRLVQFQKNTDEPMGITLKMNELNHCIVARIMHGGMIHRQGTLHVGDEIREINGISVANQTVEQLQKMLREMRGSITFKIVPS
Chain of GRIP2_6, Q9C0E4 (Q9C0E4 648-740): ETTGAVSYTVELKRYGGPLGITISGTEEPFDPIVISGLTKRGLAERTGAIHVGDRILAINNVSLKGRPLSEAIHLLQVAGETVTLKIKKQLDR

Row | Binder | pKd [1] | pKd [2] | pKd [3] | pKd [4] | pKd [5] | pKd [6] | pKd [7] | pKd [8] | pKd [9] | pKd [10] | pKd [11] | pKd [12] | pKd [13] | pKd [14] | pKd [15] | pKd [16] | pKd [17] | pKd [18] | pKd [19] | pKd [20] | other results
1 | LEPAVRSSEL [SH2D3C, Q8N5H7] | below the threshold | below the threshold | 3.78 | below the threshold | below the threshold | below the threshold | 5.33 | below the threshold | below the threshold | 3.85 | 4.49 | below the threshold | below the threshold | below the threshold | below the threshold | 4.71 | below the threshold | below the threshold | below the threshold | below the threshold | pKd [21]: below the threshold; pKd [22]: 4.29; pKd [23]: below the threshold; pKd [24]: 4.29; pKd [25]: 3.96
2 | RELVMRVTTV [MARCHF4, Q9P2E8] | below the threshold | 3.76 | 4.67 | 3.65 | below the threshold | 4.03 | below the threshold | below the threshold | below the threshold | 4.74 | 4.61 | below the threshold | 3.97 | below the threshold | 5.19 | 5.28 | below the threshold | 5.12 | 3.6 | below the threshold | pKd [21]: below the threshold; pKd [22]: 5.41; pKd [23]: below the threshold; pKd [24]: below the threshold; pKd [25]: 4.55
3 | DQPLEKSTKL [AKAP10, O43572] | below the threshold | 4.04 | 3.72 | below the threshold | below the threshold | below the threshold | 6.02 | below the threshold | below the threshold | below the threshold | 4.55 | below the threshold | 3.73 | below the threshold | below the threshold | 4.54 | below the threshold | below the threshold | below the threshold | below the threshold | pKd [21]: below the threshold; pKd [22]: below the threshold; pKd [23]: below the threshold; pKd [24]: 5.02; pKd [25]: below the threshold
4 | GQSVDLVFPV [AKIP1, Q9NQ31] | below the threshold | below the threshold | below the threshold | 3.85 | below the threshold | below the threshold | below the threshold | 3.59 | below the threshold | below the threshold | 4.1 | below the threshold | below the threshold | below the threshold | below the threshold | below the threshold | below the threshold | below the threshold | below the threshold | below the threshold | pKd [21]: below the threshold; pKd [22]: below the threshold; pKd [23]: below the threshold; pKd [24]: below the threshold; pKd [25]: below the threshold
